T1: Movement Protein of ToBRFV (Tomato Brown Rugose Fruit Virus …, UniProt A0A0S2SZW1 1-266)
T1 sequence: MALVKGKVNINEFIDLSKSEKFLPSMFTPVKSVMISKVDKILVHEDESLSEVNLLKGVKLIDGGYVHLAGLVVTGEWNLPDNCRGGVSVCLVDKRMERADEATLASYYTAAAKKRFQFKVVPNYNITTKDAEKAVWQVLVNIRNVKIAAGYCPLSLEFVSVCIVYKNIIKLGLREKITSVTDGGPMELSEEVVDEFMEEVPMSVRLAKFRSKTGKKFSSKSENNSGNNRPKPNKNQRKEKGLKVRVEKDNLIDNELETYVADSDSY


These binders were tested against T1, Movement Protein of ToBRFV (assay: cell-based or functional assay).

| Binder | HR when expressed with MP Rugose [HR scale 0-4] |
| --- | --- |
| TM-2-2 variant pJL 468_M (848 M) (receptor) MAEILLTSVINKSVEIAGNLLIQEGKRLYWLKEDIDWLQREMRHIRSYVDNAKAKEAGGDSRVKNLLKDIQELAGDVEDLLDDFLPKIQQSNKFNYCLKRSSFADEFAMEIEKIKRRVVDIDRIRKTYNIIDTDNNNDDCVLLDRRRLFLHADETEIIGLDDDFNMLQAKLLNQDLHYGVVSIVGMPGLGKTTLAKKLYRLIRDQFECSGLVYVSQQPRASEILLDIAKQIGLTEQKMKENLEDNLRSLLKIKRYVILLDDIWDVEIWDDLKLVLPECDSKVGSRMIITSRNSNVGRYIGGESSLHALQPLESEKSFELFTKKIFNFDDNNSWANASPDLVNIGRNIVGRCGGIPLAIVVTAGMLRARERTEHAWNRVLESMGHKVQDGCAKVLALSYNDLPIASRPCFLYFGLYPEDHEIRAFDLINMWIAEKFIVVNSGNRREAEDLAEDVLNDLVSRNLIQLAKRTYNGRISSCRIHDLLHSLCVDLAKESNFFHTAHDAFGDPGNVARLRRITFYSDNVMIEFFRSNPKLEKLRVLFCFAKDPSIFSHMAYFDFKLLHTLVVVMSQSFQAYVTIPSKFGNMTCLRYLRLEGNICGKLPNSIVKLTRLETIDIDRRSLIQPPSGVWESKHLRHLCYRDYGQACNSCFSISSFYPNIYSLHPNNLQTLMWIPDKFFEPRLLHRLINLRKLGILGVSNSTVKMLSIFSPVLKALEVLKLSFSSDPSEQIKLSSYPHIAKLHLNVNRTMALNSQSFPPNLIKLTLAYFSVDRYILAVLKTFPKLRKLKMFICKYNEEKMDLSGEANGYSFPQLEVLHIHSPNGLSEVTCTDDVSMPKLKKLLLTGFHMRISLSERLKKLSK | < 1 |
| TM-2-2 variant pJL 468_R (848 R) (receptor) MAEILLTSVINKSVEIAGNLLIQEGKRLYWLKEDIDWLQREMRHIRSYVDNAKAKEAGGDSRVKNLLKDIQELAGDVEDLLDDFLPKIQQSNKFNYCLKRSSFADEFAMEIEKIKRRVVDIDRIRKTYNIIDTDNNNDDCVLLDRRRLFLHADETEIIGLDDDFNMLQAKLLNQDLHYGVVSIVGMPGLGKTTLAKKLYRLIRDQFECSGLVYVSQQPRASEILLDIAKQIGLTEQKMKENLEDNLRSLLKIKRYVILLDDIWDVEIWDDLKLVLPECDSKVGSRMIITSRNSNVGRYIGGESSLHALQPLESEKSFELFTKKIFNFDDNNSWANASPDLVNIGRNIVGRCGGIPLAIVVTAGMLRARERTEHAWNRVLESMGHKVQDGCAKVLALSYNDLPIASRPCFLYFGLYPEDHEIRAFDLINMWIAEKFIVVNSGNRREAEDLAEDVLNDLVSRNLIQLAKRTYNGRISSCRIHDLLHSLCVDLAKESNFFHTAHDAFGDPGNVARLRRITFYSDNVMIEFFRSNPKLEKLRVLFCFAKDPSIFSHMAYFDFKLLHTLVVVMSQSFQAYVTIPSKFGNMTCLRYLRLEGNICGKLPNSIVKLTRLETIDIDRRSLIQPPSGVWESKHLRHLCYRDYGQACNSCFSISSFYPNIYSLHPNNLQTLMWIPDKFFEPRLLHRLINLRKLGILGVSNSTVKMLSIFSPVLKALEVLKLSFSSDPSEQIKLSSYPHIAKLHLNVNRTMALNSQSFPPNLIKLTLAYFSVDRYILAVLKTFPKLRKLKMFICKYNEEKMDLSGEANGYSFPQLEVLHIHSPNGLSEVTCTDDVSMPKLKKLLLTGFHRRISLSERLKKLSK | 4 |
| TM-2-2 variant pJL 468_P (848 P) (receptor) MAEILLTSVINKSVEIAGNLLIQEGKRLYWLKEDIDWLQREMRHIRSYVDNAKAKEAGGDSRVKNLLKDIQELAGDVEDLLDDFLPKIQQSNKFNYCLKRSSFADEFAMEIEKIKRRVVDIDRIRKTYNIIDTDNNNDDCVLLDRRRLFLHADETEIIGLDDDFNMLQAKLLNQDLHYGVVSIVGMPGLGKTTLAKKLYRLIRDQFECSGLVYVSQQPRASEILLDIAKQIGLTEQKMKENLEDNLRSLLKIKRYVILLDDIWDVEIWDDLKLVLPECDSKVGSRMIITSRNSNVGRYIGGESSLHALQPLESEKSFELFTKKIFNFDDNNSWANASPDLVNIGRNIVGRCGGIPLAIVVTAGMLRARERTEHAWNRVLESMGHKVQDGCAKVLALSYNDLPIASRPCFLYFGLYPEDHEIRAFDLINMWIAEKFIVVNSGNRREAEDLAEDVLNDLVSRNLIQLAKRTYNGRISSCRIHDLLHSLCVDLAKESNFFHTAHDAFGDPGNVARLRRITFYSDNVMIEFFRSNPKLEKLRVLFCFAKDPSIFSHMAYFDFKLLHTLVVVMSQSFQAYVTIPSKFGNMTCLRYLRLEGNICGKLPNSIVKLTRLETIDIDRRSLIQPPSGVWESKHLRHLCYRDYGQACNSCFSISSFYPNIYSLHPNNLQTLMWIPDKFFEPRLLHRLINLRKLGILGVSNSTVKMLSIFSPVLKALEVLKLSFSSDPSEQIKLSSYPHIAKLHLNVNRTMALNSQSFPPNLIKLTLAYFSVDRYILAVLKTFPKLRKLKMFICKYNEEKMDLSGEANGYSFPQLEVLHIHSPNGLSEVTCTDDVSMPKLKKLLLTGFHPRISLSERLKKLSK | < 1 |
| TM-2-2 variant pJL 468_N (848 N) (receptor) MAEILLTSVINKSVEIAGNLLIQEGKRLYWLKEDIDWLQREMRHIRSYVDNAKAKEAGGDSRVKNLLKDIQELAGDVEDLLDDFLPKIQQSNKFNYCLKRSSFADEFAMEIEKIKRRVVDIDRIRKTYNIIDTDNNNDDCVLLDRRRLFLHADETEIIGLDDDFNMLQAKLLNQDLHYGVVSIVGMPGLGKTTLAKKLYRLIRDQFECSGLVYVSQQPRASEILLDIAKQIGLTEQKMKENLEDNLRSLLKIKRYVILLDDIWDVEIWDDLKLVLPECDSKVGSRMIITSRNSNVGRYIGGESSLHALQPLESEKSFELFTKKIFNFDDNNSWANASPDLVNIGRNIVGRCGGIPLAIVVTAGMLRARERTEHAWNRVLESMGHKVQDGCAKVLALSYNDLPIASRPCFLYFGLYPEDHEIRAFDLINMWIAEKFIVVNSGNRREAEDLAEDVLNDLVSRNLIQLAKRTYNGRISSCRIHDLLHSLCVDLAKESNFFHTAHDAFGDPGNVARLRRITFYSDNVMIEFFRSNPKLEKLRVLFCFAKDPSIFSHMAYFDFKLLHTLVVVMSQSFQAYVTIPSKFGNMTCLRYLRLEGNICGKLPNSIVKLTRLETIDIDRRSLIQPPSGVWESKHLRHLCYRDYGQACNSCFSISSFYPNIYSLHPNNLQTLMWIPDKFFEPRLLHRLINLRKLGILGVSNSTVKMLSIFSPVLKALEVLKLSFSSDPSEQIKLSSYPHIAKLHLNVNRTMALNSQSFPPNLIKLTLAYFSVDRYILAVLKTFPKLRKLKMFICKYNEEKMDLSGEANGYSFPQLEVLHIHSPNGLSEVTCTDDVSMPKLKKLLLTGFHNRISLSERLKKLSK | < 1 |
| TM-2-2 variant pJL 468_S (848 S) (receptor) MAEILLTSVINKSVEIAGNLLIQEGKRLYWLKEDIDWLQREMRHIRSYVDNAKAKEAGGDSRVKNLLKDIQELAGDVEDLLDDFLPKIQQSNKFNYCLKRSSFADEFAMEIEKIKRRVVDIDRIRKTYNIIDTDNNNDDCVLLDRRRLFLHADETEIIGLDDDFNMLQAKLLNQDLHYGVVSIVGMPGLGKTTLAKKLYRLIRDQFECSGLVYVSQQPRASEILLDIAKQIGLTEQKMKENLEDNLRSLLKIKRYVILLDDIWDVEIWDDLKLVLPECDSKVGSRMIITSRNSNVGRYIGGESSLHALQPLESEKSFELFTKKIFNFDDNNSWANASPDLVNIGRNIVGRCGGIPLAIVVTAGMLRARERTEHAWNRVLESMGHKVQDGCAKVLALSYNDLPIASRPCFLYFGLYPEDHEIRAFDLINMWIAEKFIVVNSGNRREAEDLAEDVLNDLVSRNLIQLAKRTYNGRISSCRIHDLLHSLCVDLAKESNFFHTAHDAFGDPGNVARLRRITFYSDNVMIEFFRSNPKLEKLRVLFCFAKDPSIFSHMAYFDFKLLHTLVVVMSQSFQAYVTIPSKFGNMTCLRYLRLEGNICGKLPNSIVKLTRLETIDIDRRSLIQPPSGVWESKHLRHLCYRDYGQACNSCFSISSFYPNIYSLHPNNLQTLMWIPDKFFEPRLLHRLINLRKLGILGVSNSTVKMLSIFSPVLKALEVLKLSFSSDPSEQIKLSSYPHIAKLHLNVNRTMALNSQSFPPNLIKLTLAYFSVDRYILAVLKTFPKLRKLKMFICKYNEEKMDLSGEANGYSFPQLEVLHIHSPNGLSEVTCTDDVSMPKLKKLLLTGFHSRISLSERLKKLSK | ~1 |
| TM-2-2 variant pJL 468_Q (848 Q) (receptor) MAEILLTSVINKSVEIAGNLLIQEGKRLYWLKEDIDWLQREMRHIRSYVDNAKAKEAGGDSRVKNLLKDIQELAGDVEDLLDDFLPKIQQSNKFNYCLKRSSFADEFAMEIEKIKRRVVDIDRIRKTYNIIDTDNNNDDCVLLDRRRLFLHADETEIIGLDDDFNMLQAKLLNQDLHYGVVSIVGMPGLGKTTLAKKLYRLIRDQFECSGLVYVSQQPRASEILLDIAKQIGLTEQKMKENLEDNLRSLLKIKRYVILLDDIWDVEIWDDLKLVLPECDSKVGSRMIITSRNSNVGRYIGGESSLHALQPLESEKSFELFTKKIFNFDDNNSWANASPDLVNIGRNIVGRCGGIPLAIVVTAGMLRARERTEHAWNRVLESMGHKVQDGCAKVLALSYNDLPIASRPCFLYFGLYPEDHEIRAFDLINMWIAEKFIVVNSGNRREAEDLAEDVLNDLVSRNLIQLAKRTYNGRISSCRIHDLLHSLCVDLAKESNFFHTAHDAFGDPGNVARLRRITFYSDNVMIEFFRSNPKLEKLRVLFCFAKDPSIFSHMAYFDFKLLHTLVVVMSQSFQAYVTIPSKFGNMTCLRYLRLEGNICGKLPNSIVKLTRLETIDIDRRSLIQPPSGVWESKHLRHLCYRDYGQACNSCFSISSFYPNIYSLHPNNLQTLMWIPDKFFEPRLLHRLINLRKLGILGVSNSTVKMLSIFSPVLKALEVLKLSFSSDPSEQIKLSSYPHIAKLHLNVNRTMALNSQSFPPNLIKLTLAYFSVDRYILAVLKTFPKLRKLKMFICKYNEEKMDLSGEANGYSFPQLEVLHIHSPNGLSEVTCTDDVSMPKLKKLLLTGFHQRISLSERLKKLSK | < 1 |

Reference: patent US20240049668A1 (VILMORIN AND CIE, published 2024)
